# Assay results published in the Immune Epitope Database (IEDB).
# pKd: −log10 of the molar value.
# Columns and labels:
# HLA-A*32:01 = experiment: IEDB peptide-MHC binding, purified MHC/competitive/radioactivity; filed as Kd, often an IC50 or EC50 that approximates it; ≥ and ≤ were set here for values at or beyond the usual limits of such assays
# HLA-B*58:01 = experiment: IEDB peptide-MHC binding, purified MHC/direct/fluorescence; filed as Kd, often an IC50 or EC50 that approximates it; ≥ and ≤ were set here for values at or beyond the usual limits of such assays
# HLA-A*01:01 [1] = experiment: as above
# HLA-A*02:01 = experiment: as above; details: source organism: Pseudomonas putida
# HLA-B*15:01 [2] = experiment: as above; details: source organism: Pseudomonas putida
# HLA-A*26:01 [3] = experiment: as above
# HLA-B*40:01 = experiment: as above; details: source organism: Pseudomonas putida
# HLA-A*31:01 [4] = experiment: as above
# HLA-A*03:01 [5] = experiment: as above
# HLA-A*69:01 = experiment: as above
# HLA-A*11:01 [6] = experiment: as above
# HLA-B*08:01 [7] = experiment: as above; details: source organism: Pseudomonas putida
# HLA-B*07:02 [8] = experiment: as above; details: source organism: Pseudomonas putida
# HLA-B*27:05 = experiment: as above
# HLA-B*08:01 [9] = experiment: IEDB peptide-MHC binding, purified MHC/competitive/radioactivity; filed as Kd, often an IC50 or EC50 that approximates it; ≥ and ≤ were set here for values at or beyond the usual limits of such assays
# HLA-B*44:03 = experiment: as above
# HLA-A*01:01 [10] = experiment: as above
# HLA-B*15:01 [11] = experiment: as above
# HLA-B*35:01 = experiment: as above
# HLA-A*30:02 = experiment: as above
# HLA-A*26:01 [12] = experiment: as above
# HLA-A*02:02 = experiment: as above; details: source organism: Vaccinia virus WR
# HLA-A*02:06 = experiment: as above; details: source organism: Vaccinia virus WR
# HLA-A*02:03 = experiment: as above; details: source organism: Vaccinia virus WR
# HLA-B*57:01 = experiment: IEDB peptide-MHC binding, purified MHC/direct/fluorescence; filed as Kd, often an IC50 or EC50 that approximates it; ≥ and ≤ were set here for values at or beyond the usual limits of such assays
# HLA-A*33:01 = experiment: IEDB peptide-MHC binding, purified MHC/competitive/radioactivity; filed as Kd, often an IC50 or EC50 that approximates it; ≥ and ≤ were set here for values at or beyond the usual limits of such assays; details: source organism: Vaccinia virus WR
# HLA-A*68:01 = experiment: as above; details: source organism: Vaccinia virus WR
# HLA-A*31:01 [13] = experiment: as above; details: source organism: Vaccinia virus WR
# HLA-A*03:01 [14] = experiment: as above; details: source organism: Vaccinia virus WR
# HLA-A*11:01 [15] = experiment: as above; details: source organism: Vaccinia virus WR
# HLA-A*24:03 = experiment: IEDB peptide-MHC binding, purified MHC/direct/fluorescence; filed as Kd, often an IC50 or EC50 that approximates it; ≥ and ≤ were set here for values at or beyond the usual limits of such assays
# HLA-B*53:01 = experiment: IEDB peptide-MHC binding, purified MHC/competitive/radioactivity; filed as Kd, often an IC50 or EC50 that approximates it; ≥ and ≤ were set here for values at or beyond the usual limits of such assays
# HLA-B*51:01 = experiment: as above
# HLA-B*54:01 = experiment: as above
# HLA-B*07:02 [16] = experiment: as above
# [17] = source organism: Vaccinia virus WR
# [18] = source organism: Pseudomonas putida
# [19] = source organism: Dengue virus 2 Jamaica/1409/1983
# [20] = source organism: Dengue virus 4 Philippines/H241/1956
# [21] = source organism: Dengue virus 1 Brazil/97-11/1997
# [22] = source organism: Dengue virus 3 Martinique/1243/1999
# [23] = source organism: Vaccinia virus Copenhagen
# [24] = source organism: Dengue virus 1 Singapore/S275/1990
# [25] = source organism: Dengue virus 4 Dominica/814669/1981
# [26] = source organism: Burkholderia lata
# [27] = source organism: Dengue virus 2 16681-PDK53
# [28] = source organism: SARS coronavirus Tor2
sequence,measurement,setting,value
KIDNYVVKF,pKd,HLA-A*32:01; [17],7.71
DLSNSMRDF,pKd,HLA-B*58:01; [18],≤ 4.70
same,pKd,HLA-A*01:01 [1]; [18],≤ 4.70
same,pKd,HLA-A*02:01,≤ 4.70
same,pKd,HLA-B*15:01 [2],≤ 4.70
same,pKd,HLA-A*26:01 [3]; [18],5.35
same,pKd,HLA-B*40:01,≤ 4.70
same,pKd,HLA-A*31:01 [4]; [18],≤ 4.70
same,pKd,HLA-A*03:01 [5]; [18],≤ 4.70
same,pKd,HLA-A*69:01; [18],≤ 4.70
same,pKd,HLA-A*11:01 [6]; [18],≤ 4.70
same,pKd,HLA-B*08:01 [7],≤ 4.70
same,pKd,HLA-B*07:02 [8],≤ 4.70
same,pKd,HLA-B*27:05; [18],≤ 4.70
MRGAKRMAIL,pKd,HLA-B*08:01 [9]; [19],7.27
MEAEGVITQ,pKd,HLA-B*44:03; [20],5.05
FSQHNYRQGY,pKd,HLA-A*01:01 [10]; [20],6.68
same,pKd,HLA-B*15:01 [11]; [20],6.87
same,pKd,HLA-B*35:01; [20],≤ 4.34
same,pKd,HLA-A*30:02; [20],5.90
ILVIFTVAI,pKd,HLA-A*32:01; [17],7.82
TLWAIINTI,pKd,HLA-A*32:01; [17],8.82
KSDPIMLLK,pKd,HLA-A*01:01 [1]; source organism: Homo sapiens,6.46
same,pKd,HLA-A*31:01 [4]; source organism: Homo sapiens,5.09
same,pKd,HLA-A*03:01 [5]; source organism: Homo sapiens,6.42
same,pKd,HLA-A*69:01; source organism: Homo sapiens,5.82
same,pKd,HLA-A*11:01 [6]; source organism: Homo sapiens,7.39
same,pKd,HLA-B*27:05; source organism: Homo sapiens,5.13
GGPISQHNY,pKd,HLA-A*30:02; [21],6.33
TSKKRSWPL,pKd,HLA-B*08:01 [9]; [19],8.24
KTKLNDWDFV,pKd,HLA-A*32:01; [22],4.73
ITYCLVTHM,pKd,HLA-B*15:01 [11]; [17],7.60
AMEELPDTI,pKd,HLA-A*32:01; [21],≤ 4.67
ELNNTQCHI,pKd,HLA-B*15:01 [11]; [17],5.91
WNSGHEWVTD,pKd,HLA-A*32:01; [19],≤ 4.21
STFSISSIF,pKd,HLA-A*32:01; [23],8.98
MLLVLCAVQL,pKd,HLA-B*08:01 [9]; [22],5.22
TWLPVLLGSL,pKd,HLA-B*08:01 [9]; [24],5.03
EETNMITLLV,pKd,HLA-B*44:03; [20],6.21
NEMVLLQMED,pKd,HLA-B*44:03; [19],5.22
SPYNFFKRI,pKd,HLA-B*08:01 [9]; [17],6.37
WMINIMIHM,pKd,HLA-B*15:01 [11]; [17],6.18
GASRRSWPL,pKd,HLA-B*08:01 [9]; [25],7.85
NEMVLLTMKE,pKd,HLA-B*44:03; [21],5.25
HTTERGGKAY,pKd,HLA-A*01:01 [10]; [20],5.37
same,pKd,HLA-B*15:01 [11]; [20],7.30
same,pKd,HLA-A*26:01 [12]; [20],5.88
SAKQLRTRI,pKd,HLA-B*08:01 [9]; [17],6.70
MTDEQIYAF,pKd,HLA-A*32:01; [17],7.75
ITNELNYVL,pKd,HLA-A*32:01; [20],7.13
SVMNFIPII,pKd,HLA-A*02:02,7.88
same,pKd,HLA-A*02:06,8.55
same,pKd,HLA-A*02:03,8.20
same,pKd,HLA-A*32:01; [17],9.22
RSISRTENF,pKd,HLA-B*15:01 [11]; [17],8.32
ETLWSPWKL,pKd,HLA-B*58:01; [26],5.85
same,pKd,HLA-B*57:01; [26],≤ 4.70
ELCGAFLFY,pKd,HLA-A*33:01,4.87
same,pKd,HLA-A*68:01,6.56
same,pKd,HLA-B*15:01 [11]; [17],8.13
same,pKd,HLA-A*31:01 [13],5.99
same,pKd,HLA-A*03:01 [14],6.81
same,pKd,HLA-A*11:01 [15],6.71
SSMRKTDWL,pKd,HLA-B*08:01 [9]; [22],6.62
FIWFIFHFV,pKd,HLA-B*08:01 [9]; source organism: Vaccinia virus,5.50
ILLKMVTHF,pKd,HLA-B*15:01 [11]; [20],8.76
GWALGYLYF,pKd,HLA-A*24:03; source organism: Mycobacterium tuberculosis,7.61
HTTERGGRAY,pKd,HLA-A*01:01 [10]; [25],6.84
same,pKd,HLA-B*15:01 [11]; [25],6.66
same,pKd,HLA-A*26:01 [12]; [25],6.46
LSPVRVPNY,pKd,HLA-A*01:01 [10]; [19],5.27
same,pKd,HLA-A*30:02; [19],7.30
RFTPVKHEL,pKd,HLA-A*24:03; source organism: Vibrio parahaemolyticus,8.30
YISKVFEHV,pKd,HLA-B*15:01 [11]; [17],7.03
ETIDTIIDQ,pKd,HLA-A*26:01 [3]; source organism: Mammarenavirus lassaense,6.02
ISYIMLIFF,pKd,HLA-B*57:01; source organism: Yellow fever virus,5.53
TLKGMSYVM,pKd,HLA-B*15:01 [11]; [24],7.75
IISSTPFAEY,pKd,HLA-A*01:01 [10]; [20],5.46
same,pKd,HLA-A*30:02; [20],7.43
MLHCYESYM,pKd,HLA-B*15:01 [11]; [17],7.01
LTIESVNAL,pKd,HLA-A*32:01; [23],6.77
ATAGLHLGF,pKd,HLA-A*32:01; [23],8.77
AEWLWRTLGR,pKd,HLA-B*44:03; [22],6.50
PNTNRAWNSL,pKd,HLA-A*32:01; [19],5.81
LGSSFCLHA,pKd,HLA-B*15:01 [11]; [17],≤ 4.59
FSFMYIESI,pKd,HLA-B*15:01 [11]; [17],6.72
VVQPENLEY,pKd,HLA-A*01:01 [10]; [27],6.42
same,pKd,HLA-A*30:02; [27],5.69
LENENILHG,pKd,HLA-B*15:01 [11]; [23],6.51
RSWPLNEGI,pKd,HLA-A*32:01; [20],6.31
LAVSGVYPM,pKd,HLA-B*53:01; [21],6.07
same,pKd,HLA-B*15:01 [11]; [21],7.18
same,pKd,HLA-B*35:01; [21],7.78
AVHQVFGSVY,pKd,HLA-B*15:01 [11]; [20],8.96
RYRGEDGCWY,pKd,HLA-A*30:02; [19],6.70
LIITKVFSF,pKd,HLA-B*15:01 [11]; [17],8.11
same,pKd,HLA-A*32:01; [17],7.08
HPFIYVIRHV,pKd,HLA-B*53:01; [17],5.70
same,pKd,HLA-B*51:01; [17],5.99
same,pKd,HLA-B*54:01; [17],8.57
same,pKd,HLA-B*35:01; [17],5.15
same,pKd,HLA-B*07:02 [16]; [17],4.93
PVPGDWLYF,pKd,HLA-A*26:01 [3]; source organism: Mycobacterium tuberculosis str. Haarlem,5.89
KETACLGKAY,pKd,HLA-B*44:03; source organism: Dengue virus 3 Singapore/8120/1995,6.91
SPYNSQNAVA,pKd,HLA-B*53:01; [28],4.80
same,pKd,HLA-B*51:01; [28],5.46
same,pKd,HLA-B*54:01; [28],8.85
same,pKd,HLA-B*35:01; [28],5.08
same,pKd,HLA-B*07:02 [16]; [28],7.23
DPEYFDNERI,pKd,HLA-B*53:01; [17],5.76
same,pKd,HLA-B*51:01; [17],5.41
same,pKd,HLA-B*54:01; [17],5.65
same,pKd,HLA-B*35:01; [17],≤ 4.46
same,pKd,HLA-B*07:02 [16]; [17],≤ 4.16
EEISTSLSF,pKd,HLA-B*15:01 [11]; [17],8.69
LLFNSSFCI,pKd,HLA-B*15:01 [11]; [17],6.98
LAMNSVFTF,pKd,HLA-A*32:01; [23],7.79
LGKSEFQIY,pKd,HLA-A*30:02; [19],≤ 4.11
